Results taken from PMC10439124.

Biological target: Pfs230D1-E2p fusion protein (Pfs230D1-linker-E2p), 60-copy nanoparticle (Plasmodium falciparum (3D7) | Geobacillus stearothermophilus) (UniProt P68874)
Experiment: SEC-MALS + other: SEC-SAXS; SIBYLS beamline 12.3.1; the sample was injected into a size-exclusion column and a post-column splitter directed the eluate to the MALS and SAXS systems; molecular weight from Astra 6 (MALS) and PRIMUS/ATSAS (SAXS)

Substance: Pfs230D1-E2p fusion protein (Pfs230D1-linker-E2p), 60-copy nanoparticle (from UniProt P68874 542-736)
- stoichiometry N: 60
